From US20250242041A1 (Seagen, published 2025)

Tests used:
Test in all cases: ELISA on coated recombinant integrin
recombinant human αvβ3 = biological target: T1, recombinant human αvβ3 (human, UniProt P06756 31-992; P05106 27-718)
T1 construct: Bought from R&D Systems
Experimental: (§1) 96-well Maxisorb plates (Nunc) were coated overnight at 4° C. with 1 ug/ml of recombinant human αvβ1, αvβ3, αvβ5, αvβ6 and αvβ8 (R&D Systems, MN) diluted in 50 mM carbonate buffer (Sigma, MO). Plates were washed with PBS+0.05% Tween 20 (PBS-T). Wash buffer was removed and plates were blocked for 2 hours at room temperature in TBS blocking buffer (TBS, 0.05% Tween 20, 1% BSA). Plates were washed and then incubated for 2 hours with humanized 2A2 antibody diluted in TBS binding buffer (TBS, 0.05% Tween 20, 1% BSA, 1 mM MnCl₂) at concentrations that ranged from 1 pM-67 nM (10 ug/ml). Plates were washed, incubated for 1 hour with 1:5000 dilution of anti-human Fc-HRP (Jackson ImmunoResearch, PA), washed, and then incubated with TMB substrate for 5 minutes. The reaction was stopped with 1 M HCl. Absorbance at 450 nm was read using a Fusion HT plate reader (Perkin Elmer, Waltham, MA).

recombinant human αvβ5 = biological target: T2, recombinant human αvβ5 (human, UniProt P06756 31-992; P18084 24-719)
T2 construct: Bought from R&D Systems
Experimental: as §1

[1] = biological target: T3, recombinant human αvβ6 (R&D Systems) (human, UniProt P06756 31-992; P18564 22-707)
T3 construct: Bought from R&D Systems, coated on the ELISA plate
Experimental: as §1

recombinant human αvβ1 = biological target: T4, recombinant human αvβ1 (human, UniProt P06756 31-992; P05556 21-728)
T4 construct: Bought from R&D Systems
Experimental: as §1

T4 sequence (P05556 21-728 limits assumed, one chain of several): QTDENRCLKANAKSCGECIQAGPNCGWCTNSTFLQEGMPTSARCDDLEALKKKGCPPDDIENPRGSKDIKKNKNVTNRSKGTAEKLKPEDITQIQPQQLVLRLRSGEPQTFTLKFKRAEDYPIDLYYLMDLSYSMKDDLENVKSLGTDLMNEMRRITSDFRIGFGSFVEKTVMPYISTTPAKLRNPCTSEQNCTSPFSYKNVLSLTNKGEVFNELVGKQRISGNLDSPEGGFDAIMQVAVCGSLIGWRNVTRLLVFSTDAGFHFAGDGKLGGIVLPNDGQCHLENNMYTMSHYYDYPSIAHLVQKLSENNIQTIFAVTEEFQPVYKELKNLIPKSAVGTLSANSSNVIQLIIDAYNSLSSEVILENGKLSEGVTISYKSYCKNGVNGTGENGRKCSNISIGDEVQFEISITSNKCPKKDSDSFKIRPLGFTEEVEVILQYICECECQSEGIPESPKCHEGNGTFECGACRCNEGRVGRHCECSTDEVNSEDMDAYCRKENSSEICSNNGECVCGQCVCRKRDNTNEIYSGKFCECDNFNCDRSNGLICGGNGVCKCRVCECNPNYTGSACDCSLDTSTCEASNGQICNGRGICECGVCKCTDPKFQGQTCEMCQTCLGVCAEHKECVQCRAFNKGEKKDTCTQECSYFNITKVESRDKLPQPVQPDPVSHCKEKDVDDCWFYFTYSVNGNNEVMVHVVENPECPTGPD
T1 sequence (P05106 27-718 limits assumed, one chain of several): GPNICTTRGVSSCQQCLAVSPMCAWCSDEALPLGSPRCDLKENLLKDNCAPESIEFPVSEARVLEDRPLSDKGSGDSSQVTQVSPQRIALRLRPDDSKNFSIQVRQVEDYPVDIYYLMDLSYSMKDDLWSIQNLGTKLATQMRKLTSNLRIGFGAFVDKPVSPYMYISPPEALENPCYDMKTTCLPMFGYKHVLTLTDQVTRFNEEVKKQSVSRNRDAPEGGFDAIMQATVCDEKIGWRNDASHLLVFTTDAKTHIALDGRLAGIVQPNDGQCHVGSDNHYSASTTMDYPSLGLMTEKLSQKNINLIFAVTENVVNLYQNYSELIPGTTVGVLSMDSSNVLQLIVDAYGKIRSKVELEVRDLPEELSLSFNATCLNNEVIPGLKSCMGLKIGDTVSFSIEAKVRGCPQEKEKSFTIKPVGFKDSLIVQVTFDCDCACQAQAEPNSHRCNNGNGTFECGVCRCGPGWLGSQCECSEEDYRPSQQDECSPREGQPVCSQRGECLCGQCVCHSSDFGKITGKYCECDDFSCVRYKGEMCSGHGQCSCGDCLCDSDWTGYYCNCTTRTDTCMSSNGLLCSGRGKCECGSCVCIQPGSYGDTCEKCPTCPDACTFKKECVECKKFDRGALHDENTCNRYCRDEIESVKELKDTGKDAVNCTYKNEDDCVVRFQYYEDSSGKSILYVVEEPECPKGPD
T2 sequence (P18084 24-719 limits assumed, one chain of several): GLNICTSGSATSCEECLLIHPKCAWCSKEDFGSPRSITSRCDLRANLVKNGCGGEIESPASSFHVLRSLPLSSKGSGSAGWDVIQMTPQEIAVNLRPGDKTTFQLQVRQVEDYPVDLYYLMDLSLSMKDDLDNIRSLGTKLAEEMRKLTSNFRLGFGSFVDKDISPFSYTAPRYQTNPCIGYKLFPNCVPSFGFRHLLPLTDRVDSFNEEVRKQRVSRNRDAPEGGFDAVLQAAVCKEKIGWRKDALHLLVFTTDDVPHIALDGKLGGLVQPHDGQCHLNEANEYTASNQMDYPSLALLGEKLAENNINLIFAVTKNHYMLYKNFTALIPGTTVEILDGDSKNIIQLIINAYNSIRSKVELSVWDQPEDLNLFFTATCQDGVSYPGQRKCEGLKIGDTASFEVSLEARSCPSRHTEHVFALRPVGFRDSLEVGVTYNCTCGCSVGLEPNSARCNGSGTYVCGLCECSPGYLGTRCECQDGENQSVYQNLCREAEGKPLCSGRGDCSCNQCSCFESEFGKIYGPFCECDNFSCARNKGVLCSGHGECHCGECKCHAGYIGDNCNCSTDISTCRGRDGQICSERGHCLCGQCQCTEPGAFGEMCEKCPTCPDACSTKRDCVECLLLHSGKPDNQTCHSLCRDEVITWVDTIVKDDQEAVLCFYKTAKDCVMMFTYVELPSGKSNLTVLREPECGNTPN

B1: h2A2 HCLG humanized antibody (antibody, human IgG1, kappa, V domains shown)
VH: QFQLVQSGAEVKKPGASVKVSCKASGYSFTDYNVNWVRQAPGQGLEWIGVINPKYGTTRYNQKFKGRATLTVDKSTSTAYMELSSLRSEDTAVYYCTRGLNAWDYWGQGTLVTVSS
VL: DIQMTQSPSSLSASVGDRVTITCGASENIYGALNWYQQKPGKAPKLLIYGATNLEDGVPSRFSGSGSGRDYTFTISSLQPEDIATYYCQNVLTTPYTFGQGTKLEIKR
notes: Labelled with AlexaFluor-647 in the saturation assay; also called humanized 2A2 HCLG
**Q.** Does B1 bind (recombinant human αvβ3)?
**A.** Result: no binding (tested: 1 pM-67 nM (10 ug/ml))

**Q.** Does B1 bind (recombinant human αvβ5)?
**A.** Result: no binding (tested: 1 pM-67 nM (10 ug/ml))

**Q.** Does B1 bind [1]?
**A.** Result: binds

**Q.** Does B1 bind (recombinant human αvβ1)?
**A.** Result: no binding (tested: 1 pM-67 nM (10 ug/ml))
